Laboratory results: the supplement of paper PMC9170038

Tested on: MS2 coat protein
Assay: apparent KD of MS2 coat protein; designed switch direction (-1 OFF switch, 1 ON switch): -1; higher = weaker reporter binding
In short: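 The reported apparent KD is a per-design median over clusters, from curve fits of normalised cluster fluorescence. Protein titrations used SNAP-549-labelled MS2 coat protein, doubled from 0.7 or 1.5 nM to 3 µM, in Tris-HCl pH 7.5 buffer with KCl, MgCl2, BSA, DTT, tRNA and Tween-20, with no input, 200 uM small-molecule ligand, or an oligonucleotide input. The RNA switches were transcribed on Illumina chips by stalled E. coli RNA polymerase.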

[1] = Eterna round: R95, input ligand: microRNA oligo, concentration not stated

Row | Sequence | apparent KD of MS2 coat protein (input ligand: FMN 200 uM) [nM] | apparent KD of MS2 coat protein (input ligand: none) [nM] | further results
1 | GGCAGACAUGAGGAUCACCCAUGUCAGGAUAUGGUGCGAUCGUCGAUAGACGAUAGCACCAGAAGGGACAUGCC [Mat - Exclusion 1 - Eli Mod - D3] (Eterna round: R97, puzzle: Exclusion 1) | 39.7 | 21.4 | 
2 | GGCAGUCGAGGAUAUACAAUCGUGCUUCGGCACGUAAGAUCACAUGAGGAUCACCCAUGUAGAAGGCGACUGCC [E2/1-A1] (Eterna round: R97, puzzle: Exclusion 2) | 749 | 53.2 | 
3 | GGCAUCGGAGGAUAUACUUAUGGUGAUACCGGAAGCUUUCUACUUGAGGAUCACCCAAGUAGAAGGCCGAUGCC [jl-ex2.4.84 ViennaUCT mod] (Eterna round: R97, puzzle: Exclusion 2) | 9.01 | 22.9 | 
4 | GGCAUGCAAGGAUAUACUUACAGUGAUGUUCGAAUAAGUCUACUUGAGGAUCACCCAAGUAGAAGGUGCAUGCC [Exclusion 2 (Mod3.1 JL EX2 4.74 Vienna UCT mod of Mamaed)] (Eterna round: R97, puzzle: Exclusion 2) | 62.8 | 16 | 
5 | GGCAUGUAAGGAUAUGCCACGGAGGCCUUUGGCCUCCGAAAGCAGAAGGUACAUGAGGAUCACCCAUGUGAUAA [jl-ex4-4.59 ViennaUCT mod] (Eterna round: R97, puzzle: Exclusion 4) | 467 | 390 | 
6 | GGCCCUAAGGUCAGAUUCACAAGCUUUUUGCUCGUUUUAACAUGAGGAUCACCCAUGUCUAGUGGAUUUGAUCCUUA [Sensor v3, turn-off variant 2 (MOD of Indiso v.7)] (puzzle: Sensor v3, turn-off variant 2) |  |  | apparent KD of MS2 coat protein (Eterna round: R95, input ligand: FMN 200 uM): 21.8 nM; apparent KD of MS2 coat protein [1]: 20 nM; apparent KD of MS2 coat protein (Eterna round: R95, input ligand: none): 18.9 nM
7 | GGCCUCGCGGUCAGGAUAUAUUGCUGUAAUCAGUGGUAGAAGGGACAUGAGGAUCACCCAUGUACCUAGGACAU [BmEX4 C.20] (Eterna round: R97, puzzle: Brourd's mod of Exclusion 4) | 33.4 | 18.9 | 
8 | GGCCUGGAAGGAUAUACAUGAGGAUCACCCAUGUGAAGCCGGUGCAAAUUGACACGAUGUAGAAGGUCCAGCCG [Eternabot (L1) Solution 92] (Eterna round: R97, puzzle: Exclusion 3) | 467 | 172 | 
9 | GGCCUGUAAGGAUAUUAGUAGUAGUCAGAAUAGACUAUUACUGAGAAGGUACAUGAGGAUCACCCAUGUUGGCC [Eli x4 4.06] (Eterna round: R97, puzzle: Exclusion 4) | 17.7 | 14 | 
10 | GGCCUUCCGCGAGCUUUUUACAUGAGGAUCACCCAUGUGGUUUUUAGUCUUAUCCCGGGCCCGGUGUCGGGCCCGGG [-32.9, -53.8, A 12%] (Eterna round: R97, puzzle: Sensor, turn-off variant 1) | 29.8 | 30.2 | 
11 | GGCCUUCCGCGAGCUUUUUACAUGAGGAUCACCCAUGUGGUUUUUAGUCUUAUCCGGCCGGCCGUGUGGCCGGCCGG [-32.9, -53.8, A 12%] (Eterna round: R97, puzzle: Sensor, turn-off variant 1) | 26.1 | 30.4 | 
12 | GGCGAAGUAGGAUAUACAUGAGGAUCACCCAUGUAACCUGAUGGCGUAGGUCUUCUAUGUAGAAGGACUACGCC [jl-ex3-4.39 ViennaUCT mod] (Eterna round: R97, puzzle: Exclusion 3) | 15.9 | 18.1 | 
13 | GGCGCACAUGAGGAUCACCCAUGUGAGGAUAUUAGGCGAUCGUCGAAAGACGAUAGCCUGAGAAGGCACAUGCC [Eli x1 4.19] (Eterna round: R97, puzzle: Exclusion 1) | 154 | 33.1 | 
14 | GGCGCCUGAGGAUAUCAGUCUGGAUCAGAAAAGAUCCUGACUGAGAAGGCACAUGAGGAUCACCCAUGUUCGCC [Mat - Exclusion 4 - Eli Mod - D51] (Eterna round: R97, puzzle: Exclusion 4) | 14.5 | 14.7 | 
15 | GGCUAGUCAGGAUAUACGAACAUGUCAAAAGACGUGAAGGGACAUGAGGAUCACCCAUGUAGAAGGGACUAGCA [salish99-ex2-12] (Eterna round: R96, puzzle: Exclusion 2) | 187 | 28 | apparent KD of MS2 coat protein (input ligand: microRNA oligo, concentration not stated): 21 nM
16 | GGCUAGUCAGGAUAUACGAACAUGUCAAAAGACGUGAAGGGACAUGAGGAUCACCCAUGUAGAAGGGACUAGCA [salish99_ex2_r3_001] (puzzle: Exclusion 2) |  |  | apparent KD of MS2 coat protein [1]: 23.5 nM
